# Laboratory results as given in US20250236667A1, “ANTIBODIES TO MUTANT CALRETICULIN AND USES THEREOF” (CENTRAL ADELAIDE LOCAL HEALTH NETWORK INC, priority 2021, published 2025).
# B1: 4D7: rat monoclonal IgG2a antibody against the mutant CALR neoepitope; VH SEQ ID NO: 5, VL SEQ ID NO: 7 (antibody, listed as Rattus rattus, V domains shown)
# VH: QVQLQQSGAELAKPGSSVKISCKASGYTFTNYDMSWIKQRPGQALEWIGAINPGNGVTDYNEKFRGKATLTVDKSSSTAFMQLSSLTPEDTAVYHCAREYRDNYGYFDYWGQGVMVTVSS
# VL: DIVLTQTPVSLSVTLGDQASISCRSSQSLEYSDGYTYLDWFLQKPGQSPQLLIYEVSSRFSGVPDRFIGRGSGTDFTLKISRVEPEDLGVYYCFQATHDPFTFGSGTKLEIK
# What was measured:
# [1] = tested on: TF-1 TpoR CALR^del61 cells; assay: Cell cycle analysis by flow cytometry (propidium iodide); type: cell-based, human; conditions: 20 μg/mL, 48 hours; P=0.001
# Method: Cell cycle analysis was carried out by flow cytometry. Briefly, TF-1 TpoR and TF-1 TpoR CALR^del61 cells were seeded at a concentration of ˜2×10^5 per well in triplicate under standard culture conditions, with the addition of 20 μg/mL IgG or 4D7. Cells were treated for 48 hours and were fixed by 70% (v/v) ethanol at 4° C. overnight. Fixed cells were rinsed twice with PBS and stained with 50 μg/mL propridium iodide (PI: ThermoFisher)+100 μg/mL RNAse A (QIAGEN). Cells were incubated for 30 minutes at RT in the dark and analysed on the BD FACSCantoII (BD Biosciences).
# [2] = tested on: TF-1 TpoR CALR^del61 cells; assay: Cell proliferation, trypan blue exclusion; type: cell-based, human; conditions: over 5 days at 2, 10 and 20 μg/mL
# Method: […] Cells were seeded in triplicate and each well was counted in triplicate every 24 hours for 5 days using trypan blue exclusion.
# [3] = tested on: ruxolitinib-resistant TF-1 TpoR CALR^del61 cells in NSG mice; assay: Bone marrow engraftment xenograft model, ruxolitinib-resistant cells; type: in vivo; conditions: cells resistant to 100 nM ruxolitinib; 12.5 mg/kg twice weekly from day 7; P=0.0008
# Method: All procedures were approved by the South Australian Health and Medical Research Animal Ethics Committee (Protocol SAM21-018). Bone marrow engraftment model: 4-6 week old NSG mice were x-ray irradiated with 150 cGy and 5×10^5 cells (TF-1-TpoR CALR^del61) or 5×10^4 cells (100 nM ruxolitinib resistant TF-1 TpoR CALR^del61) were intravenously injected into mice. Seven days after injection, mice were administered 12.5 mg/kg IgG or 4D7 by intraperitoneal injection twice weekly. Tail vein bleeds were taken at 3 weeks and analysed via flow cytometry to determine human leukaemia content in the peripheral blood. Leukemic cells were PI-, mCD45.1, hCD33+, zsGreen+. Mice were monitored daily and euthanized once clinical symptoms were observed. At the time of euthanasia, cardiac puncture was performed to obtain both peripheral blood and serum for analysis. Additionally, bone marrow from both femurs, spine and spleens were analysed for leukemic content as detailed above. Chloroma model: 4-6 week old NSG mice were anaesthetised by isoflurane inhalation and shaved on the left back/flank and 1×10^7 cells were injected into the mice. Cells were pre-treated with 20 μg/mL IgG or 4D7 for 1 hour prior to injection. Seven days after injection, mice were administered 12.5 mg/kg IgG or 4D7 by intraperitoneal injection twice weekly. Tumour progression was assessed through caliper measurements every 2 days. […]
# [4] = tested on: TF-1 TpoR CALR^del61 cells in NSG mice; assay: Chloroma xenograft model (subcutaneous injection); type: in vivo
# Method: All procedures were approved by the South Australian Health and Medical Research Animal Ethics Committee (Protocol SAM21-018). Bone marrow engraftment model: 4-6 week old NSG mice were x-ray irradiated with 150 cGy and 5×10^5 cells (TF-1-TpoR CALR^del61) or 5×10^4 cells (100 nM ruxolitinib resistant TF-1 TpoR CALR^del61) were intravenously injected into mice. […] Tail vein bleeds were taken at 3 weeks and analysed via flow cytometry to determine human leukaemia content in the peripheral blood. Leukemic cells were PI-, mCD45.1, hCD33+, zsGreen+. Mice were monitored daily and euthanized once clinical symptoms were observed. At the time of euthanasia, cardiac puncture was performed to obtain both peripheral blood and serum for analysis. Additionally, bone marrow from both femurs, spine and spleens were analysed for leukemic content as detailed above. Chloroma model: 4-6 week old NSG mice were anaesthetised by isoflurane inhalation and shaved on the left back/flank and 1×10^7 cells were injected into the mice. Cells were pre-treated with 20 μg/mL IgG or 4D7 for 1 hour prior to injection. […] Tumour progression was assessed through caliper measurements every 2 days. Mice were euthanised once tumours began to impede movement, show signs of ulceration or if any measurement of the tumour exceeded 30 mm (length, width or depth).
# [5] = tested on: TF-1 TpoR CALR^del61 cells; assay: Flow cytometry of 4D7 binding to the cell surface, mutant CALR cells; type: cell-based, human; conditions: PE-conjugated 4D7; vs unstained or isotype-PE control
# Method: TF-1 cells expressing TpoR and mutant CALR were incubated for 30 minutes 4D7 conjugated to phycoerthryin (PE) (Abcam, #AB102918) or IgG2a PE isotype control (ThermoFisher #12-4321-42) at the concentrations specified after pre-incubation with mouse serum. Cells were washed 1 × before analysis on a CytoFLEX (Beckman Coulter).
molecule,measurement,setting,value
B1,sub-Go fraction compared to IgG control,[1],significant increase
same,TPO-independent cell growth,[2],blockade of TPO-independent cell growth
same,"survival, hazard ratio",[3],0.26
same,"survival, hazard ratio","[4]; 4D7 vs IgG, P=0.02",0.19
same,mean tumour volume,"[4]; 21 days post-engraftment, 12.5 mg/kg twice weekly, P=0.04",353 mm^3
same,binding to the cell surface,[5],Specific binding
